Test results: a protein production outcome set (Wang et al. 2014)

Assay: label from the status in PepcDB records
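Note: failed if final PepcDB status was selected cloned or expressed and not failed if soluble or beyond.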

Row | Sequence | protein production
1 | MNSNVNDRKPRLVFFQWDHQPNANAAGYLLLHMQQQVKCLSTHFDVVVINRDCDYAEICDRYEPDLTLFESGYRSHGSRRIKITNTNTHIAVPKLGLHNADAWCDRRAGFLSDMEQWGIEAYFAIATMTPEYMPAVKENLFVWPNFIDPDVYHDYGQQKVIPAMLTGQAYGLYPWRQTVFPMIRDRYPCLVSPQHAYESKLASQLLSGEAYARALNASLVVPTCGTMGGEVVRKHFEIPGAKACLVTERTPAVEAAGFVDMENCVFVDGHNVVERLDYLFAHPDEIRHITTAGYSLIHSRHTLSHRPQIYQWFMLSKGLQFGEKIIQSGPFGDLTKVQRISRQESVHIVGEASDRALLKQGDLLLEQGRVEEAKQCYARCLDYVSYLPEAKFRLAICALQQGDADRAYGLMVGLVKVTMTEYEALNPDPVEWAYFLLALICRGQFERARRLQDFYPSLSHDEFRRARLVIALLGGSGDAAVSGRYGRDRKSIHQIPDRSDSEWLAWFSDILERCQQPDLANVLRHAPVGRSGVGEKVTFLHFKRDAGWRLRLYSGVDGLMVGLHLNGLRPNVPPLPEFRYFSHLARRLVPHSQRGPLRRIRTALSRLPVGTGN | failed
2 | MSLRVYVTGNITVDETWSIPDIPKKGASIHGVKVSQDIGGKGANQAIILSRCGIETRLIAATGNDSNGAWIRQQIKNEPLMLLPDGHFNQHSDTSIILNSADGDNAIITTTAAADTFSLDEMIPHMADAVAGDILLQQGNFSLDKTRALFQYARSRGMTTVFNPSPVNPDFCHLWPLIDIAVVNESEAELLQPYGVKTLVITQGAAGAWLVQEGQRQFCPAVPAEALDTTGAGDTFLAVMLASALLRGVAPDALALAHASRAAAITVSRRGTLSAFPGSRELAALLTTDGAEGHHHHHH | not failed
3 | MTVRYFAAAAAAAGIETESLEIATGTSVAELVERLGARNPELARVLKRCSYLCDEVAVRDMAKPLVTPQTVDVLPPFAGGLEHHHHHH | failed
4 | MTNFNIDFYAPAKEQRASTHSVMGLSSVPHPSPLFLETPYSELWSRHFGSAVVSLSVTADLAMLAVACKNRQLTVLSRDGELHWSHRLDDDITATAIASNHHVAVGTQQASDGAVAVYLFDADGRELFRTSLKSAVSSLTHSSNGEHLVIQCKNQAWYIASRVADTYQLSQANAEDVAQSKRNDALLAVKDRLLSEPNLYPHAASVAVSLEGTAAIGSLDGKIHLIDCQGKPLWSRQVDGEVWTLGISENGAIIASGCTDGTVKLLANHAHDAYNQYIHALQHSAERLKNTAEQQQAVSEILASLSQTGLAVYAVNWLQEGTLQLAPDALDEIVIKLLSEQVQRFPKHYASHFILAQTYQRRQEWHQAARHFTWAGQNERMKLKSFTLAAESFQKAGLPFAAKSAYRRARELTVTEEAKKTLYTLGRIHEEQGSITDAQKYYEVVFTLNPDYLDVCARLQNLNSPPATLTSRAVPENKDWYASLIRELLSPVSQHGFDLARQDNPAHSRTARLTSVAEHRKRLLSIVSEFSLDSVDNTADARLGYDVAAYMRYDCSVPEDEAKKSLELVNMLDCIKHYGPFSKSLDIGAATGRYPTLLAQQGIQAFGVDLEPMAVEFARKKSNGALNPQFHQGDARDLPFESTQFDLVTCMMGTAAHFPRQDVPTVMSEIHRCLVPGGFCVISTWDIECPHLTYLSIYSHEQKELMRQNAISRADVSEIAIAQGFVVEEIRGVGLLPESLGYELDLQQDGPERIRNLLDMDLAFQAKFPDLHGQMYMLIIRKI | failed
5 | MCTKNETKPLPSFIEERLNFHIQDLIKSNENQKHLVLGKRPSENAVVMQSNDYLSLSHNELIQKAHRDAISERDDNVVMSAIFLQDDQSKPAFEHQLATFVGMESCLLSQSGWAANIGLLQTICAPNLPVYIDFFAHMSLWEGARTAGAQIHPFMHNNMNHLRKQIQRHGAGIIVVDSVYSTIGTIAPLRAIYEMAKEFDCGLVVDESHSLGTHGPEGSGLLQKLGLTQMVDFVTVSLAKTFAYRAGAILGPNKLAQSLPFVAYPAIFSSTVLPQEVVRLEKTLEVIKAADDKRECLFKRAKELAIGLKRIGFNIRSESQIIALECGSERNTERVRDFLEERDVFGAVFCRPATGRNKNIIRFSVNADMTAQQVDHVLSACQEAFDHPDLEFV | not failed
6 | MSGAGKKIADVAFKASRTIDWDGMAKVLVTDEARREFSNLRRAFDEVNTQLQTKFSQEPEPIDWDYYRKGIGAGIVDKYKEAYDSIEIPKYVDKVTPEYKPKFDALLVELKEAEQKSLKESERLEKEIADVQEISKKLSTMTADEYFEKHPELKKKFDDEIRNDNWGY | failed
7 | MLVLIMWLCQQRSCRRLKRGDPMAQFENNRQRLFVPAVAPLYNSTHDLVETILRVAAGLLLVTHGFGKIVNPFGAVGMVESLGFHPGVFWSPLLAATEFFGGILVAIGLFTRPASFAAMIVLLVTVYFHGIVKAEGLGGAEKSILWAAIFLFFAVRGGNRHSVDAKLTREF | failed
8 | MESVKTGKTNKVGKNTEMANTKANKETHFKQVSAITNIIRSVGGFFTKIAKRVRGLVKKHPKKSSAALVVLTHIACKKAKELDDKVQDKSKQAEKENQINWWKYSGLTIAASLLLAACSAGDTDKQIELEQEKKEAENARDRANKSGIELEQERQKTNKSGIELANSQIKAEQERQKTEQEKQKANKSAIELEQQKQKTINTQRDLIKEQKDFIKETEQNCQENHNQFFIKKLGIKGGIAIEVEAECKTPKPAKTNQTPIQPKHLPNSKQPHSQRGSKAQEFIAYLQKELEFLPYSQKAIAKQVNFYKPSSIAYLELDPRDFKVTEEWQKENLKIRSKAQAKMLEMRDLKPDPQAHLPTSQSLLFVQKIFADVNKEIEAVANTEKKAEKAGYGYSKRM | failed
9 | MRCCHSGKSYRLWGHRSSQRHRSGETGRGRLRIDQPGAASRRGSRALSWCGCHHVPCPDVTGAGRVRATCRRSFVHERNPHLHMLDAFHRGDVGLYTGTMTAPALLSREAELSRRDLIALESRLREAVSRFLPFKAYSLYFPREAETVEPLWLPGEGRLLLPLIHGGALLAVFVARGVPRRIVRSLMPAFPGLLALCMENLALYKAGRTDALTGLSTRQHLVERMAREADHVRTCFANPPEGEGDLGAPLHRACMGLVVVRLASLRQVARDHGYTFADRLTTELARELSALAPEQALAARTGDYEFALLVPAAASGVCRKLAEEAVQRLSAVSLRCGLTEKAVRVCVSAGYAVYPRDMEGALFERDMAEQARVLLRKARLAAAVAGEGEGSEGPGVMGFARILAEGGAVVETHPLSRVMVNLGRSMNAREGQRFSVWSVAYPVRGGTHEPRQPLYKGEVVLLEVREDRSVAEILHLGDPTWPIEPGDRLTLLPEEKGGDARRDASGVQVDPLTGLYRHGDFLARWSEAREGCDCFALALVRFSDDGRDPEGRASHPEQLMAEAAQLCRDHFGAETLGGRYGLNSIVFFHPDMTCDAARESYRQLCDLLSKRLRIDAAVGVGCHPFLAYRRADALENALKALEYALLLPEPRVGIFDSLALNISADKRFSLGDTFGAIEEYKTALLADEGNTMAWNSLGVCMAGLGRHGEARRYFEQALQRKPGDPMALYNLGTVCQSLGETAEARKQYRKCLKYAPGHVFALVRLGQLAEGEKRYAQARQYFNKAARAGDSGGLVHRNLARLSMRQGRPDEAREHLHDALLRNPQDAVALQLMARLYLDGGEDPAMAEALSRQSVALRPDLKQGWLELARALDARGHVAEAREARLRAGER | failed
10 | MNKRVVKVEYIFMAFALFFGVLFAVINAPFQDPDEPIHFYRAYQISTGQMFEQKNNSGIGGYLPQNLIKTSENLSEDIKAKSNKKQDINKIKYYLNLPLNKNKVAFNDFRSATIYSDIVYIPQSIGINLAKIFRASALYMMYFGRIANLICWTIIVFFSVKLIPFKKNLMAFLALTPMNLYQAASLSADAMTNSMAFLSIALVLRYAFGEEEAKLTKRQIVTMIIAFTLLAFSKRIYFVMCILFFIIPIKKFNSKKDYIGTFVIMLGACLMSLVTVSVISKILAIKVSAGSYTPGQMEFVLSHPITYIHILLRTFHFKMSFYAISFIGVFGWLDTRLPLNLYLFYGVALVLIALFEHTLIEKNKDRIIMFIVFIINVGLIMSALYVSWTPKAANIIEGIQGRYFIPIIPLLGCFIGVKANKSRNVYSKVVLAISTFTILTYSVLQLLLRFYGIRIL | failed
11 | MWLGYMNKSIPTTRKTRTFKAMSIEFSAPAKMKIEVWSDIMCPFCYIGKKRLDDALSTFDQAGRIEVEYKSFELMPGLETHPLRSDVEYLADAKGMSLEQARQMNGQVQAMAQATGLEMNPDETIAANTINAHRLTHFAKAHGKQQEVAQELFKAHFVDGKNVDDLDVLVSIAAEVGLDASAAREALESDVYTNEVQQDVHEARQLGVQGVPFFVFDRKYAINGAQQEEVFTGTVEKAFEEWAAENPVSPFEVIDGQSCSVDGTCN | not failed
12 | PAIDYKTAFHLAPIGLVLSRDRVIEDCNDELAAIFRCARADLIGRSFEVLYPSSDEFERIGERISPVMIAHGSYADDRIMKRAGGELFWCHVTGRALDRTAPLAAGVWTFEDLSATRRVA | not failed
13 | MKPSTEWWRYLAPLAVIAIIALLPVPAGLENHTWLYFAVFTGVIVGLILEPVPGAVVAMVGISIIAILSPWLLFSPEQLAQPGFKFTAKSLSWAVSGFSNSVIWLIFAAFMFGTGYEKTGLGRRIALILVKKMGHRTLFLGYAVMFSELILAPVTPSNSARGAGIIYPIIRNLPPLYQSQPNDSSSRSIGSYIMWMGIVADCVTSAIFLTAMAPNLLLIGLMKSASHATLSWGDWFLGMLPLSILLVLLVPWLAYVLYPPVLKSGDQVPRWAETELQAMGPLCSREKRMLGLMVGALVLWIFGGDYIDAAMVGYSVVALMLLLRIISWDDIVSNKAAWNVFFWLASLITLATGLNNTGFISWFGKLLAGSLSGYSPTMVMVALIVVFYLLRYFFASATAYTSALAPMMIAAALAMPEIPLPVFCLMVGAAIGLGSILTPYATGPSPIYYGSGYLPTADYWRLGAIFGLIFLVLLVITGLLWMPVVLL | failed
14 | MTVAFASDQRLENGAEQLESLRRQMALLSEKVSGGPSRSGDLVPAGPVSLPPGTVGVLSGARSLLLSMVASVTAAGGNAAIVGQPDIGLLAAVEMGADLSRLAMIPDPGTDPVEVAAVLIDGMDLVVLGLGGRRVTRARARAVVARARQKGCTLLVTDGDWQGVSTRLAARVCGYEITPALRGVPTPGLGRISGVRLQINGRGR | failed
15 | MEILKKTGKFLLGVVIGVAIMMFADRYYVKGKRLIADNLPKEPVEYVNPYMGNISHLLVPTYPTVHLPNSMLRVYPERGDFTGDRLGGLPLIVTSHRGSSAFNLSPYQGDEAGLKPVIQYSYDREKIVPYRYQVYLDEANIEVDYAPSHQSAVYSLTFEKDGPAYLVFNSRNGELKCDGNTVSGFQYVDKKTKVYLYAETDKTPEKSGVLASGTVKYGKSSVEGKDAALTLAFSGQKEIGVRYGISFISTEQARKNLEREINSYDVSAIARIGRNEWNDALGKIQVSGGSENDKTVFYTSLYRCYERPVNLSEDGKYYSAFDGKIHEDGGRSFYTDDWIWDTYRATHPLRILIDKERETDIINSYLLMAQQMGTNWMPTFPEVTGDSRRMNSNHAVATVIDAWRKGVRGFDLEKAYEAARKGIEEKTLIPWSAAPSGWLDEFYKEHGYIPALKPGEKETVADVSPWEKRQPVAVTLGTAYDEWCLSQIAAELGKKEDAEYFLARSYNYRNLFNPETRFFHPKDKDGKFIEGVDYRYSGGLGARDYYDENNGYIYRWDVQHNIGDLVSLIGGNEVFTAALDSMFDTPLGMSKWQFYSFLPDHTGNVGMFSMANEPSLHIPYLYNYAGQPWKTQKRIRVLLDQWFRNDLMGVPGDEDGGGMSAFVVFSMMGFYPVTPGSPTYNIGSPVFSDVKIDLGGGNVFEIVADGASHDNKYVQSATLNGEELSGPWFDHSRITAGGVLSLKMGPKANKKWGIGNPPPSVGPMQK | failed
16 | MGSKTSPKWISAILRWPLLWHAARLALVSAYILGGFTKLLDLAGAAAEQEHFGLYPGWLWASAAILVELFGSLLVVINRWVWLGAGGLGILTFVAMLTANAFWTMGGHERFMATNAFFEHLGLIAGLVIVTILSEEAVTRPKSGAGSQAIQGVSR | failed
